Measurements reported in patent US20260070987A1.
Changes are numbered by the printed parent chain. Names and notes keep the numbering of the source.

B1: equine IgG4 WT (antibody, part only; not given: Variable domains; allotype unconfirmed, not shown: another chain or arm of the molecule)
constant: ASTTAPKVFPLASHSAATSGSTVALGCLVSSYFPEPVTVSWNSGALTSGVHTFPSVLQSSGLYSLSSMVTVPASSLKSQTYICNVAHPASSTKVDKKIVIKECNGGCPAECLQVGPSVFIFPPKPKDVLMISRTPTVTCVVVDVGHDFPDVQFNWYVDGVETHTATTEPKQEQFNSTYRVVSVLPIQHKDWLSGKEFKCKVNNKALPAPVERTISKPTGQPREPQVYVLAPHRDELSKNKVSVTCLVKDFYPTDIDIEWKSNGQPEPETKYSTTPAQLDSDGSYFLYSKLTVETNRWQQGTTFTCAVMHEALHNHYTEKSVSKSPGK
B2: equine IgG4 K311A (antibody, part only; not given: variable domains, not shown: another chain or arm of the molecule)
constant: B1 constant with K189A
B3: equine IgG4 K311C (antibody, part only; not given: variable domains, not shown: another chain or arm of the molecule; small tags and cut ends)
constant: B1 constant with K189C
B4: equine IgG4 K311G (antibody, part only; not given: variable domains, not shown: another chain or arm of the molecule; small tags and cut ends)
constant: B1 constant with K189G
B5: equine IgG4 K311E (antibody, part only; not given: variable domains, not shown: another chain or arm of the molecule; small tags and cut ends)
constant: B1 constant with K189E
B6: equine IgG4 K311L (antibody, part only; not given: Variable domains, not shown: another chain or arm of the molecule)
constant: B1 constant with K189L
B7: equine IgG4 K311S (antibody, part only; not given: variable domains, not shown: another chain or arm of the molecule)
constant: B1 constant with K189S
B8: equine IgG4 K311R (antibody, part only; not given: variable domains, not shown: another chain or arm of the molecule)
constant: B1 constant with K189R
B9: equine IgG4 K311M (antibody, part only; not given: variable domains, not shown: another chain or arm of the molecule)
constant: B1 constant with K189M
B10: equine IgG4 K311Q (antibody, part only; not given: variable domains, not shown: another chain or arm of the molecule)
constant: B1 constant with K189Q
B11: equine IgG4 K311P (antibody, part only; not given: Variable domains, not shown: another chain or arm of the molecule)
constant: B1 constant with K189P
B12: equine IgG4 K311H (antibody, part only; not given: variable domains, not shown: another chain or arm of the molecule; small tags and cut ends)
constant: B1 constant with K189H
B13: equine IgG4 K311N (antibody, part only; not given: variable domains, not shown: another chain or arm of the molecule)
constant: B1 constant with K189N
B14: equine IgG4 K311F (antibody, part only; not given: variable domains, not shown: another chain or arm of the molecule; small tags and cut ends)
constant: B1 constant with K189F
B15: equine IgG4 K311T (antibody, part only; not given: variable domains, not shown: another chain or arm of the molecule)
constant: B1 constant with K189T
B16: equine IgG4 K311D (antibody, part only; not given: variable domains, not shown: another chain or arm of the molecule; small tags and cut ends)
constant: B1 constant with K189D
B17: equine IgG4 K311I (antibody, part only; not given: variable domains, not shown: another chain or arm of the molecule; small tags and cut ends)
constant: B1 constant with K189I
B18: equine IgG1 WT (antibody, part only; not given: Variable domains, not shown: another chain or arm of the molecule)
constant: ASTTAPKVFALAPGCGTTSDSTVALGCLVSGYFPEPVKVSWNSGSLTSGVHTFPSVLQSSGFYSLSSMVTVPASTWTSETYICNVVHAASNFKVDKRIEPIPDNHQKVCDMSKCPKCPAPELLGGPSVFIFPPNPKDTLMITRTPEVTCVVVDVSQENPDVKFNWYMDGVEVRTATTRPKEEQFNSTYRVVSVLRIQHQDWLSGKEFKCKVNNQALPQPIERTITKTKGRSQEPQVYVLAPHPDELSKSKVSVTCLVKDFYPPEINIEWQSNGQPELETKYSTTQAQQDSDGSYFLYSKLSVDRNRWQQGTTFTCGVMHEALHNHYTQKNVSKNPGK
B19: equine IgG1 N434P (antibody, part only; not given: variable domains, not shown: another chain or arm of the molecule)
constant: B18 constant with N324P
B20: equine IgG1 N434I (antibody, part only; not given: variable domains, not shown: another chain or arm of the molecule)
constant: B18 constant with N324I
B21: equine IgG1 N434T (antibody, part only; not given: variable domains, not shown: another chain or arm of the molecule)
constant: B18 constant with N324T
B22: equine IgG1 Y436I (antibody, part only; not given: variable domains, not shown: another chain or arm of the molecule)
constant: B18 constant with Y326I
B23: equine IgG1 T286H (antibody, part only; not given: variable domains, not shown: another chain or arm of the molecule)
constant: B18 constant with T174H
B24: equine IgG1 Y436E (antibody, part only; not given: variable domains, not shown: another chain or arm of the molecule)
constant: B18 constant with Y326E
B25: equine IgG1 Y436S (antibody, part only; not given: Variable domains, not shown: another chain or arm of the molecule)
constant: B18 constant with Y326S
B26: equine IgG1 N434K (antibody, part only; not given: variable domains, not shown: another chain or arm of the molecule)
constant: B18 constant with N324K
B27: equine IgG1 Y436C (antibody, part only; not given: Variable domains, not shown: another chain or arm of the molecule)
constant: B18 constant with Y326C
B28: equine IgG1 Y436N (antibody, part only; not given: variable domains, not shown: another chain or arm of the molecule)
constant: B18 constant with Y326N
B29: equine IgG1 T286D (antibody, part only; not given: variable domains, not shown: another chain or arm of the molecule)
constant: B18 constant with T174D
B30: equine IgG1 N434Y (antibody, part only; not given: Variable domains, not shown: another chain or arm of the molecule)
constant: B18 constant with N324Y
B31: equine IgG1 Y436R (antibody, part only; not given: variable domains, not shown: another chain or arm of the molecule)
constant: B18 constant with Y326R
B32: equine IgG1 Y436L (antibody, part only; not given: variable domains, not shown: another chain or arm of the molecule)
constant: B18 constant with Y326L
B33: equine IgG1 Y436W (antibody, part only; not given: Variable domains, not shown: another chain or arm of the molecule)
constant: B18 constant with Y326W
B34: equine IgG1 Y436G (antibody, part only; not given: variable domains, not shown: another chain or arm of the molecule)
constant: B18 constant with Y326G
B35: equine IgG1 Y436Q (antibody, part only; not given: variable domains, not shown: another chain or arm of the molecule)
constant: B18 constant with Y326Q
B36: equine IgG1 N434M (antibody, part only; not given: Variable domains, not shown: another chain or arm of the molecule)
constant: B18 constant with N324M
B37: equine IgG1 T286E (antibody, part only; not given: variable domains, not shown: another chain or arm of the molecule)
constant: B18 constant with T174E
B38: equine IgG1 Y436F (antibody, part only; not given: variable domains, not shown: another chain or arm of the molecule)
constant: B18 constant with Y326F
B39: equine IgG1 T286F (antibody, part only; not given: variable domains, not shown: another chain or arm of the molecule)
constant: B18 constant with T174F
B40: equine IgG1 N434S (antibody, part only; not given: variable domains, not shown: another chain or arm of the molecule)
constant: B18 constant with N324S
B41: equine IgG1 Y436K (antibody, part only; not given: variable domains, not shown: another chain or arm of the molecule)
constant: B18 constant with Y326K
B42: equine IgG1 N434Q (antibody, part only; not given: variable domains, not shown: another chain or arm of the molecule)
constant: B18 constant with N324Q
B43: equine IgG1 N434V (antibody, part only; not given: variable domains, not shown: another chain or arm of the molecule)
constant: B18 constant with N324V
B44: equine IgG1 Y436A (antibody, part only; not given: variable domains, not shown: another chain or arm of the molecule)
constant: B18 constant with Y326A
B45: equine IgG1 T286G (antibody, part only; not given: variable domains, not shown: another chain or arm of the molecule)
constant: B18 constant with T174G
B46: equine IgG1 Y436V (antibody, part only; not given: variable domains, not shown: another chain or arm of the molecule)
constant: B18 constant with Y326V
B47: equine IgG1 Y436T (antibody, part only; not given: variable domains, not shown: another chain or arm of the molecule)
constant: B18 constant with Y326T
B48: equine IgG1 Y436M (antibody, part only; not given: variable domains, not shown: another chain or arm of the molecule)
constant: B18 constant with Y326M
B49: equine IgG1 N434H (antibody, part only; not given: Variable domains, not shown: another chain or arm of the molecule)
constant: B18 constant with N324H
B50: equine IgG1 N434G (antibody, part only; not given: variable domains, not shown: another chain or arm of the molecule)
constant: B18 constant with N324G
B51: equine IgG1 Y436H (antibody, part only; not given: variable domains, not shown: another chain or arm of the molecule)
constant: B18 constant with Y326H
B52: equine IgG1 Y436D (antibody, part only; not given: variable domains, not shown: another chain or arm of the molecule)
constant: B18 constant with Y326D
B53: equine IgG1 N434R (antibody, part only; not given: variable domains, not shown: another chain or arm of the molecule)
constant: B18 constant with N324R

molecular target: equine FcRn (large alpha subunit p51) / equine beta-2-microglobulin complex, biotinylated (equine) (UniProt P30441); assay: SPR (Biacore), pH 6
Sequence of UniProt P30441 (P30441 21-118, one chain of several): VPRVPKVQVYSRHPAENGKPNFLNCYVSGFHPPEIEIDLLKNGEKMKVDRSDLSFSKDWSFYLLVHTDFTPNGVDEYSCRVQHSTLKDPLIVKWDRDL

Binder | Kd [nM]
B1 | 22.5
B2 | 24.8
B3 | 23.5
B4 | 51.2
B5 | 75.2
B6 | 28
B7 | 12.4
B8 | 16.1
B9 | 16.4
B10 | 21.9
B11 | 2000
B12 | 35.6
B13 | 41.1
B14 | 41.8
B15 | 25.5
B16 | 64.3
B17 | 30.6
B18 | 22.5
B19 | 25
B20 | 44.3
B21 | 19.6
B22 | 7.84
B23 | 22.4
B24 | 33.8
B25 | 13.5
B26 | 17.5
B27 | 32.8

Binder | Kd [nM]
B28 | 23.1
B29 | 23.9
B30 | 2.15
B31 | 25.6
B32 | 12.4
B33 | 10.2
B34 | 22
B35 | 14.6
B36 | 29
B37 | 21.9
B38 | 12.5
B39 | 18.5
B40 | 10
B41 | 18
B42 | 12.8
B43 | 31.2
B44 | 20.4
B45 | 15
B46 | 9.06
B47 | 15.2
B48 | 11.1
B49 | 4.1
B50 | 5.57
B51 | 19.1
B52 | 28.4
B53 | 14
